Assay results from the supplement of paper PMC12042874.
± gives the uncertainty stated by the source.

Assay: amyloid nucleation score (Sup35N fusion, yeast selection) (log enrichment); library NNK3; higher = more nucleation; inactive = no reads after selection
Method in brief: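 Psi-negative yeast expressed Sup35N fused to peptides of 20 random codons. They were induced 24 hours with 100 μM copper sulfate, grown 7 days at 30°C without adenine and uracil, and their plasmid inserts from input and output were Illumina-sequenced. The nucleation score is the DiMSum log enrichment of output over input reads, centred on the mode score of non-aggregating sequences. Sequences with under 100 input reads were excluded.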
With NFQNSVLFNMV the amyloid nucleation score was “inactive”. In the case of SFNSNSDDDIIFDALNYTLN, the amyloid nucleation score is reported as 0.069 ± 0.62. In the case of YHTPCSTSDVARRGRYSRRD, the amyloid nucleation score is reported as “inactive”. With MVSSLRALCPQHFVCSVVCM the amyloid nucleation score was 0.885 ± 0.14. For GDFTSLDVVYYGNDCTLF, the amyloid nucleation score was “inactive”. With TEVPFRVSF the amyloid nucleation score was “inactive”. For TKYFRSNNPFHLVYTYIYLT, the amyloid nucleation score was “inactive”. With IYNPRSNINQFPDTFEPDQM the amyloid nucleation score was “inactive”. For DIGMDGYRLLRRSQQRYFMN, the amyloid nucleation score was “inactive”. With SVTFSHVRTSRIRCGIMVYP the amyloid nucleation score was “inactive”. With YSTNVSYY the amyloid nucleation score was “inactive”. In the case of SESSS, the amyloid nucleation score is reported as “inactive”. With NGDYDIIRSTCYTSKVYQSV the amyloid nucleation score was “inactive”. With IKNHIIVRIDFGLYGEEKDS the amyloid nucleation score was 0.399 ± 0.19. With RHVLQILLSKKRDATMLPNY the amyloid nucleation score was “inactive”. With LFGGCLSLDDIVTDRLMTCF the amyloid nucleation score was “inactive”. For RFLRRIIDIVMGQSGNWMIR, the amyloid nucleation score was “inactive”. With PYFFTDLICSFKIGAYEQGS the amyloid nucleation score was “inactive”. With SWLCPFNGA the amyloid nucleation score was “inactive”. For NNDYADLRWGKSVGKASGWG, the amyloid nucleation score was “inactive”. IIVTKGAMR gave an amyloid nucleation score of -0.87 ± 1.7. For VDHSLVWDHWTLRDIPCKTG, the amyloid nucleation score was “inactive”. In the case of SYGNCSSMHGPVKMLRICHQ, the amyloid nucleation score is reported as “inactive”. For VVDLIRNCKDRTVDLLDGIA, the amyloid nucleation score was “inactive”. For CVIITFESRILDELICDTVR, the amyloid nucleation score was “inactive”. With TEDGYNNEMSRQKVMVLINT the amyloid nucleation score was “inactive”. With LWTALK the amyloid nucleation score was “inactive”. With TCTAFQMHI the amyloid nucleation score was 0.007 ± 0.68. In the case of IPSTMRDDFAYTNCPNNSFL, the amyloid nucleation score is reported as “inactive”. For AVQQKSECFLFAFLILRDWV, the amyloid nucleation score was “inactive”. In the case of FDRKYW, the amyloid nucleation score is reported as “inactive”. For KLVAGFPAGCTK, the amyloid nucleation score was “inactive”. In the case of ESWNRKVLRHVSVEWHWLV, the amyloid nucleation score is reported as “inactive”. With HLHVVHKIAS the amyloid nucleation score was -0.471 ± 0.82. For SFFGVVGKEFVIVQLAIVSG, the amyloid nucleation score was “inactive”. With MVLYGAHECRDDKSVSLTRC the amyloid nucleation score was “inactive”. For MSFTMMCMSFCSSILRYNLS, the amyloid nucleation score was “inactive”. In the case of ACSRGKCFTNRGSRWHLFVC, the amyloid nucleation score is reported as “inactive”. For QQMGYGKADSMFTSLVVYTM, the amyloid nucleation score was “inactive”. For SNCSSWSSPV, the amyloid nucleation score was “inactive”. For FCYSDFIPLWIR, the amyloid nucleation score was “inactive”. For NGSGGWLNINNISEGRWRTG, the amyloid nucleation score was “inactive”. For FTIVTQCEPTRLSCISDNIR, the amyloid nucleation score was “inactive”. LYINVHLEEIIFSLALREK showed an amyloid nucleation score of 1.71 ± 0.057. In the case of FWVVISLMSSRVTVASDDHI, the amyloid nucleation score is reported as “inactive”. For NLAMWMDSECLRVSN, the amyloid nucleation score was “inactive”. For YSPDMRGMFIGGPDSVPLEG, the amyloid nucleation score was “inactive”. With KYEVCSYFNLCGEGKYRTVV the amyloid nucleation score was “inactive”. For VISISRFDGWQRAHVKVRVS, the amyloid nucleation score was “inactive”. For SECWKAFDLGYDNKLSIPRI, the amyloid nucleation score was “inactive”. With FYFPLYDL the amyloid nucleation score was “inactive”. Substance VVVSSYNCVLVQVVICKWGR has an amyloid nucleation score of 0.192 ± 0.85. In the case of ASKENCLIVFIVYQSIIETC, the amyloid nucleation score is reported as “inactive”. TLLFSIYCIFLNPSVQRRFE gave an amyloid nucleation score of -0.028 ± 0.43. With CNISERENALETHTMNKFVV the amyloid nucleation score was “inactive”. For EVEIRWPCLKVVFLFLVH, the amyloid nucleation score was “inactive”. In the case of LNNSTSCEVGKNVCISFKWA, the amyloid nucleation score is reported as 2.22 ± 0.089. VVHNYEITWYHL gave an amyloid nucleation score of 1.99 ± 0.074. With DSMVCSHCWLFDEGSYVYGQ the amyloid nucleation score was “inactive”. In the case of MALLLDILMNNNFISIKGFI, the amyloid nucleation score is reported as “inactive”. In the case of KNQNMMMSSQFSMYCWFRLT, the amyloid nucleation score is reported as “inactive”. For SSLLKFDFPVLPCHDLRLAL, the amyloid nucleation score was “inactive”. For IGYLDFVHSIENVVYNWGAS, the amyloid nucleation score was “inactive”. With NTYRMMKGLSPVFMKMLCTP the amyloid nucleation score was “inactive”. In the case of VLLFI, the amyloid nucleation score is reported as “inactive”. In the case of SAIYMTVTVLVPFGFEMDNK, the amyloid nucleation score is reported as 0.178 ± 0.49. For VSFVSSVIVDGMPEILSIRY, the amyloid nucleation score was “inactive”. In the case of VCVKPLCFLAHMYGKC, the amyloid nucleation score is reported as “inactive”. For RGTVSQFVMAVNWFTSFVKR, the amyloid nucleation score was “inactive”. For WFLFRINQFKL, the amyloid nucleation score was “inactive”. In the case of GNSIRAVVLLRMGLELDSGV, the amyloid nucleation score is reported as “inactive”. In the case of RGKCSNIETRIVRCWGGQVV, the amyloid nucleation score is reported as “inactive”. KRDIVFLCGDWVDSFTCSGG showed an amyloid nucleation score of 1.79 ± 0.075. In the case of QKIPRDDEPMANQDRLSKIS, the amyloid nucleation score is reported as “inactive”. For LIGNTSGMILHSTITDEAWL, the amyloid nucleation score was “inactive”. In the case of NFSFGGLIISGCIMRNWGLQ, the amyloid nucleation score is reported as 2.92 ± 0.077. With TCSRIQLISNWFRVQLKSNV the amyloid nucleation score was “inactive”. With HVGAIMLLLLLTSERLMTLD the amyloid nucleation score was “inactive”.
